Measurements as given in the supplement of paper PMC9170038.

System: MS2 coat protein
Experiment: apparent KD of MS2 coat protein; designed switch direction (-1 OFF switch, 1 ON switch): -1; higher = weaker reporter binding
In short: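 Three titration conditions were used: no input, 200 uM small-molecule ligand, and an oligonucleotide input. In each, SNAP-549-labelled MS2 coat protein was raised from 0.7 or 1.5 nM, doubling, to 3 µM over designed RNA switches transcribed on Illumina chips by stalled E. coli RNA polymerase. Curve fits of normalised cluster fluorescence gave values whose per-design median over clusters is the apparent KD.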

[1] = Eterna round: R95, input ligand: FMN 200 uM
[2] = Eterna round: R95, input ligand: microRNA oligo, concentration not stated
[3] = Eterna round: R95, input ligand: none
[4] = input ligand: microRNA oligo, concentration not stated

AAAUACAAGUAAAGAUCCUACAUGAGGAUCACCCAUGUGCUCGUUUUAUAAAGUACUAUCACGAAAGUGAUAGUACA [Sensor 3, v1 - 23] (puzzle: Sensor v3, turn-off variant 1)
apparent KD of MS2 coat protein [1]: 900 nM
apparent KD of MS2 coat protein [2]: 4.81 nM
apparent KD of MS2 coat protein [3]: 435 nM

AAAUAGCAUGAGGAUAUUGAACUGUAUACAGUACGAGAAGGCAUGACAUGAGGAUCACCCAUGUUUUGUUGGGA [EX6 #4] (Eterna round: R97, puzzle: Exclusion 6)
apparent KD of MS2 coat protein (input ligand: FMN 200 uM): 119 nM
apparent KD of MS2 coat protein (input ligand: none): 49 nM

AAAUAGUGAGGAUAUUAGUUGUACGUCAAUAGACGUAUAAGUGAGAAGGCACAUGAGGAUCACCCAUGUUCCUG [Omei Ex4 Mod of Mat's R95 mod of Omei v8] (Eterna round: R97, puzzle: Exclusion 4)
apparent KD of MS2 coat protein (input ligand: FMN 200 uM): 34.4 nM
apparent KD of MS2 coat protein (input ligand: none): 18.3 nM

AAAUAUCAUGUAGGAUAUGGAAGGCGAACCUAUCCAGAAGGACAUGAGGAUCACCCAUGUGCUGCGUUGUCCGUAGACAGCGCU [Ex NG1 #2] (Eterna round: R96, puzzle: Exclusion NG 1)
apparent KD of MS2 coat protein (input ligand: FMN 200 uM): 88.2 nM
apparent KD of MS2 coat protein [4]: 21.1 nM
apparent KD of MS2 coat protein (input ligand: none): 31.4 nM

AAAUCCCGAGGAUAUACAUGAGGAUCACCCAUGUAAUCAAACAGGGCAAAUUGAUCCGGUAGAAGGCGGACAAU [EX3 A.26] (Eterna round: R97, puzzle: Exclusion 3)
apparent KD of MS2 coat protein (input ligand: FMN 200 uM): 26.6 nM
apparent KD of MS2 coat protein (input ligand: none): 13.5 nM

AAAUGACAUGAGGAUCACCCAUGUGGCCCUUAGACUCAUAUCGAGGAUAUCCAGGGCCGGGCCGUGGAGAAGGCGAAUUAAAAU [Edatriusti] (Eterna round: R96, puzzle: Exclusion NG 3)
apparent KD of MS2 coat protein (input ligand: FMN 200 uM): 32.1 nM
apparent KD of MS2 coat protein [4]: 26.1 nM
apparent KD of MS2 coat protein (input ligand: none): 40.6 nM

AAAUGCAGGUAAAGAUUCUACAUGAGGAUCACCCAUGUGCUCGUCUUAUAAAGUACUAUCACGAAAGUGAUAGUACA [Sensor 3, v1 - 41] (puzzle: Sensor v3, turn-off variant 1)
apparent KD of MS2 coat protein [1]: 27.6 nM
apparent KD of MS2 coat protein [2]: 268 nM
apparent KD of MS2 coat protein [3]: 26.6 nM

AAAUUAGCAAGUAGGUCCGACAUGAGGAUCACCCAUGUAAUCUAAUAUUACGCUGCAUGAGAGUGCGCUCGUCUUAA [Sensor-V1 #18] (Eterna round: R97, puzzle: Sensor, turn-off variant 1)
apparent KD of MS2 coat protein (input ligand: FMN 200 uM): 196 nM
apparent KD of MS2 coat protein (input ligand: none): 220 nM

AAAUUGGUAGAGGAUAUCGCACAGGAAACACUGCGAGAAGGCUGCACAUGAGGAUCACCCAUGUUCAGUUGCGA [EX6 #38] (Eterna round: R97, puzzle: Exclusion 6)
apparent KD of MS2 coat protein (input ligand: FMN 200 uM): 16.7 nM
apparent KD of MS2 coat protein (input ligand: none): 14.8 nM

AAAUUGGUAGAGGAUAUCGUACAGGAAACGGUGCGAGAAGGUUGCACAUGAGGAUCACCCAUGUUAAGUUGCGA [EX6 #45] (Eterna round: R97, puzzle: Exclusion 6)
apparent KD of MS2 coat protein (input ligand: FMN 200 uM): 24.1 nM
apparent KD of MS2 coat protein (input ligand: none): 26.8 nM

AAAUUGUCAGGAUAUUGUUAGUUUAGUUGUUUGUAUUAGUUCGAGAAGGGACAUGAGGAUCACCCAUGUGAAAA [Ex4 #69] (Eterna round: R97, puzzle: Exclusion 4)
apparent KD of MS2 coat protein (input ligand: FMN 200 uM): 38.3 nM
apparent KD of MS2 coat protein (input ligand: none): 41.5 nM

AAAUUGUGAGGAUAUUCGAUGAACACGGAGACGUGUUUAUCGGAGAAGGCACAUGAGGAUCACCCAUGUUCCUU [Mat - Exclusion 4 - JL Mod - D24] (Eterna round: R97, puzzle: Exclusion 4)
apparent KD of MS2 coat protein (input ligand: FMN 200 uM): 80.4 nM
apparent KD of MS2 coat protein (input ligand: none): 16.3 nM

AAAUUGUGAGGAUAUUCGAUGAACUCGGAGACGAGUUUAUCGGAGAAGGCACAUGAGGAUCACCCAUGUUCCUU [Mat - Exclusion 4 - JL Mod - D23] (Eterna round: R97, puzzle: Exclusion 4)
apparent KD of MS2 coat protein (input ligand: FMN 200 uM): 102 nM
apparent KD of MS2 coat protein (input ligand: none): 18.5 nM

AACAAGCUAGGAUAUACAUGAGGAUCACCCAUGUGCGACUGAUGUCCCGUGGUUGAGGGUAGAAGGAGCGAAAG [Qucelexe] (puzzle: Exclusion 3)
apparent KD of MS2 coat protein [1]: 239 nM
apparent KD of MS2 coat protein [2]: 210 nM
apparent KD of MS2 coat protein [3]: 226 nM

AACAAGCUUUAAAGAUCCCACAUGAGGAUCACCCAUGUGCUCGUCUUGUAACGUACUGUGACGAAAGUCACGGUACG [JL TOV1 3.28] (Eterna round: R97, puzzle: Sensor, turn-off variant 1)
apparent KD of MS2 coat protein (input ligand: FMN 200 uM): 24.6 nM
apparent KD of MS2 coat protein (input ligand: none): 23.9 nM

AACACACAUGAGGAUCACCCAUGUGAGGAUAUCGUCGAGGAUGUAAUGCCAUCCGUGACGAGAAGGCACUUGGG [Exclusion 1 (Mod 3 solution 40 by Eternabot)] (Eterna round: R97, puzzle: Exclusion 1)
apparent KD of MS2 coat protein (input ligand: FMN 200 uM): 58.8 nM
apparent KD of MS2 coat protein (input ligand: none): 211 nM

AACAGUACAGGAUAUACAUGAGGAUCACCCAUGUGAGAAUUAUGUGGCGUACCACAAAGUAGAAGGGUACUGGA [JL Maslow Revisted mod 3] (Eterna round: R96, puzzle: Exclusion 3)
apparent KD of MS2 coat protein (input ligand: FMN 200 uM): 497 nM
apparent KD of MS2 coat protein [4]: 61.3 nM
apparent KD of MS2 coat protein (input ligand: none): 69.6 nM

AACAGUCUAGAGGAUAUGCUGGAUUAAUAUCUGGCAGAAGGCUGGACAUGAGGAUCACCCAUGUAAAUACUACC [Omei Ex6 A1] (Eterna round: R97, puzzle: Exclusion 6)
apparent KD of MS2 coat protein (input ligand: FMN 200 uM): 137 nM
apparent KD of MS2 coat protein (input ligand: none): 44.3 nM

AACCAGAUGAAACACAGGCACAUGAGGAUCACCCAUGUCUUAGAGCAUUCGGGUAAUCGGCUCGUUUUAAUUAGAAC [Eternabot (L1) Solution 22] (Eterna round: R97, puzzle: Sensor, turn-off variant 1)
apparent KD of MS2 coat protein (input ligand: FMN 200 uM): 279 nM
apparent KD of MS2 coat protein (input ligand: none): 344 nM

AACCAGCGAGGAUAUGCUUGAGCUUGUUCUGGUCAGAAUCGACUUGAGGAUCACCCAAGUAGAAGGUGCUGACG [EX2 #60] (Eterna round: R97, puzzle: Exclusion 2)
apparent KD of MS2 coat protein (input ligand: FMN 200 uM): 18.7 nM
apparent KD of MS2 coat protein (input ligand: none): 16.9 nM

AACCAGCGAGGAUAUGCUUGCGCGUGUUCUGGUUAUAAUCGACUUGAGGAUCACCCAAGUAGAAGGUGCUGGCG [EX2 #55] (Eterna round: R97, puzzle: Exclusion 2)
apparent KD of MS2 coat protein (input ligand: FMN 200 uM): 360 nM
apparent KD of MS2 coat protein (input ligand: none): 147 nM

AACCAUGAGCGAGGAUAUCACCCUACGGAGUGGUGAGAAGGCGCAACAUGAGGAUCACCCAUGUACAAAUGCGGGACCCUUUUC [Zaorredila] (Eterna round: R96, puzzle: Exclusion NG 1)
apparent KD of MS2 coat protein [4]: 21.6 nM

AACCCUAGGGUCAGACGCACAAGCUUUUUGCUCGUUUUAACAUGAGGAUCACCCAUGUCUAGUGGAUCUGAUCGGGC [Isreen] (puzzle: Sensor v3, turn-off variant 2)
apparent KD of MS2 coat protein [1]: 24.7 nM
apparent KD of MS2 coat protein [2]: 137 nM
apparent KD of MS2 coat protein [3]: 26.2 nM

AACCUAGUCAUAGGAUAUACAGGCAAAGCCAAAGUAGAAGGAUGACACAUGAGGAUCACCCAUGUGGUCCUUGAACAAAAUAAC [Esatier] (Eterna round: R96, puzzle: Exclusion NG 1)
apparent KD of MS2 coat protein [4]: 24.1 nM

AACCUGAGGCAAAGCUUUAGGUGUACAUGAGGAUCACCCAUGUAGGAUAUGGUAGGCAAAGCUUACCAGAAGGACAUGUUAAUU [Mat - Exclusion NG 3 - Mod of JL - D38] (Eterna round: R96, puzzle: Exclusion NG 3)
apparent KD of MS2 coat protein (input ligand: FMN 200 uM): 172 nM
apparent KD of MS2 coat protein [4]: 61.5 nM
apparent KD of MS2 coat protein (input ligand: none): 67 nM

AACGACUGAGGAUAUACAUGAGGAUCACCCAUGUAUUGAAAUACGUGCUUGGUCAACUGUAGAAGGCAGAAUAA [Oresza] (puzzle: Exclusion 3)
apparent KD of MS2 coat protein [2]: 15.9 nM

AACGUGCUGCGAGGAUAUACAUGAGGAUCACCCAUGUGGAUGUCUGAGGCAAAGCCUCAGACAAUGUAGAAGGCGCAGUACGAA [Mat - Exclusion NG 2 - Mod of JL - D57] (Eterna round: R96, puzzle: Exclusion NG 2)
apparent KD of MS2 coat protein (input ligand: FMN 200 uM): 72.5 nM
apparent KD of MS2 coat protein [4]: 18.7 nM
apparent KD of MS2 coat protein (input ligand: none): 19.6 nM

AACUAGUCAGGAUAUACGAACAUGUCAAAAAACAUAAAGGGACAUGAGGAUCACCCAUGUAGAAGGGACUAGCA [74%, Web mod - With 4 less G's] (Eterna round: R96, puzzle: Exclusion 2)
apparent KD of MS2 coat protein [4]: 150 nM

AACUAUUUAGGAUAUCAGGCGAACCACAUGAGGAUCACCCAUGUGGCCCGUUGUGGUCCUUGAGAAGGAAAGAGUU [EX5 B.15] (Eterna round: R97, puzzle: Exclusion 5)
apparent KD of MS2 coat protein (input ligand: FMN 200 uM): 53.5 nM
apparent KD of MS2 coat protein (input ligand: none): 22.7 nM

AACUGUCUAAAGGAUAUGCUGGAUUAAUAUCUGGCAGAAGGUUAGACAUGAGGAUCACCCAUGUAAAUACCACC [Omei Ex6 A10] (Eterna round: R97, puzzle: Exclusion 6)
apparent KD of MS2 coat protein (input ligand: FMN 200 uM): 106 nM
apparent KD of MS2 coat protein (input ligand: none): 19.5 nM

AAGAAACAUGAGGAUCACCCAUGUGAGGAUAUAGAAAAGAAAGAAAGAAAGAAAGAAACUAGAAGGCACAAAGA [It's All Mine] (puzzle: Exclusion 1)
apparent KD of MS2 coat protein [1]: 24.6 nM
apparent KD of MS2 coat protein [2]: 39.2 nM
apparent KD of MS2 coat protein [3]: 26.1 nM
